Data from patent publication US20220241314A1, “COMPOSITIONS AND METHODS FOR TREATMENT OF HEPATITIS B VIRUS INFECTION” (priority 2019, published 2022).
{ppp} = triphosphate

Key:
[1] = in vitro; settings: human
Method: (§3) HepG2-NTCP Cells (10A and 10C), dHepaRG (10B and 10D), and PHH (10E) were treated with increasing doses of F7 or poly-U/UC PAMP for 72 hours. Cell viability was determined concurrently by measuring ATP content, with values normalized to mock-treated cells. Graph represents the mean of triplicated samples in each of 3 independent experiments, with error bars showing standard deviation.ns=non-significant.
(§4) To determine the values of 90% of maximal Inhibitory concentration (IC90) and half-maximal Inhibitory concentration (IC50), as well as the cytotoxic concentration, CC50, of F7 and poly-U/UC, PAMP, two different cell lines were used, HepG2-hNTCP and dHepaRG cells.
(§5) Cytotoxicity assays: Cytotoxicity was evaluated from cultures of HepG2-C3A -hNTCP and dHepaRG cells using CellTiter-Glo as described (Edwards, T. C., et al. (2019). Inhibition of HBV replication by N-hydroxvisoquinolinedione and N-hydroxypyridinedinone ribonuclease H inhibitors. Antiviral research 164, 70-80). […] Cytotoxicity of each was measured with the ATP content as a measure of cell viability using the CellTiter-Glo™ reagent (Promega) per manufacturer's instructions. The plates were read using a luminescence plate reader (Berthold) and the relative luminescence unit (RLU) data generated from each well was calculated as percent signal compared to the untreated control. […]

[2] = in vitro; settings: human, HepG2-hNTCP cells (HepG2-C3A-hNTCP)
Method: as §3, §4, §5

[3] = system: HBV cccDNA; assay: cccDNA levels in HBV-infected primary human hepatocytes (Southern blot); assay type: cell-based, HBV (Genotype D); settings: PHH, HBV 200 Geq/cell, single treatment at 1 dpi, harvested 3 dpi
Method: (§1) FIGS. 7A-7C illustrate suppression of cccDNA in primary human hepatocytes. (7A) PHH were cultured alone or were treated with 100 ng/ml X-RNA (X100), or 50 ng/ml (P50), 100 ng/ml (P100) or 200 ng/ml (P200) poly-U/UC PAMP or were infected with SenV (control) and harvested 24 and 72 hours later. The cell lysates were analyzed by immunoblot for p-IRF3 (S386 phosphorylated, active IRF3), IRF3 (total IRF3), IFIT1, and Actin (control) using respective antibodies. (7B) PHH cultures were cultured alone or were treated with 100 ng/ml X-RNA (X100), or 100 ng/ml (P100) or 200 ng/ml (P200) poly-U/UC PAMP or were infected with SenV (control) and harvested 24 and 72 later. Cells were harvested, RNA extracted and analyzed by RT-qPCR to measure the expression levels of the indicated innate immune genes normalized to the level of GAPDH expression. Values are shown on the heat map as mean fold induction over nontreated cells from three independent experiments. (7C) PHH cultures were inoculated with HBV at moi of 200 Geq/cell. […] Three days later the cells were harvested, DNA isolated by isolated Hirt extraction, and analyzed by Southern blot using a HBV-specific probe. […]
(§2) PHH cultures were treated over a poly-U/UC PAMP dose-response and assessed innate immune activation. […]

[4] = system: dHepaRG cells; assay: Cytotoxicity, cellular ATP content (CellTiter-Glo), dHepaRG; settings: 72 hours (FIG. 10D), 23.49 nM = 800 ng/ml
Method: as §3, §4, §5

[5] = system: IRF3; assay: Innate immune activation in primary human hepatocytes (immunoblot, RT-qPCR); assay type: cell-based; settings: PHH, 24 and 72 hours
Method: as §1, §2

In the case of `O=C(Nc1ccc2nc(NC(=O)c3ccc4ccccc4c3)sc2c1)c1ccccc1` [F7, N-(6-benzamido-1,3-benzothiazol-2-yl)naphthalene-2-carboxamide], the CC50 at 72 h [1] is reported as > 40 µM and the CC50 at 72 h [2] is reported as > 40 µM.

B1: poly-U/UC PAMP: ~100 nt PAMP motif from the HCV genome comprising 5′ppp and the poly U/UC region, recognized by RIG-I; formulated in liposome (nucleic acid)
chain: GGCCAUCCUGUUUUUUUCCCUUUUUUUUUUUCUUUUUUUUUUUUUUUUUUUUUUUUUUUUUUUUUUCUCCUUUUUUUUUCCUCUUUUUUUCCUUUUCUUUCCUUU
modifications: RNA, 5' {ppp}, backbone and methylation of C not given here; formulated in liposome
notes: ~100 nt PAMP motif from the HCV genome comprising 5′ppp and the poly U/UC region, recognized by RIG-I; formulated in liposome
For B1, the cccDNA levels [3] was “suppressed cccDNA levels in the infected PHH to levels similar to CsA treatment”, the CC50 [4] was > 0.0235 µM and the “innate immune gene expression (RT-qPCR)” value [5] was “robustly induced innate immune gene expression”. For the same molecule, the “IRF3 activation (phosphoserine 386 IRF3) and IFIT1 expression” value ([5]; poly-U/UC PAMP 50-200 ng/ml, X-RNA 100 ng/ml) was “induced IRF3 activation”.
